Tests used:
[1] = biological target: T1, MMP-9 (Homo sapiens, UniProt P14780); experiment: In vitro enzymatic validation of FIB One with recombinant MMP-9 (plate reader); type: biochemical; details: MMP 30 nM, n=3 in duplicate
T1 construct: recombinant MMPs (Enzo Life Sciences) (active domains of MMP-1, MMP-2, MMP-3, MMP-7, MMP-8, MMP-9, MMP-10, MMP-11, MMP-12, and MMP-13); purchased Enzo Life Sciences
Experimental: To determine the enzymatic specificity of FIB One, the probe was incubated at a concentration of 1 μM (unless otherwise stated) with the recombinant MMPs (Enzo Life Sciences) (active domains of MMP-1, MMP-2, MMP-3, MMP-7, MMP-8, MMP-9, MMP-10, MMP-11, MMP-12, and MMP-13, all at 30 nM), thrombin (Sigma Aldrich) (5 U/mL), factor Xa (Sigma Aldrich) (500 nM), plasmin (Sigma Aldrich) (30 nM), and human neutrophil elastase (30 nM). Where appropriate, enzymes were incubated with specific inhibitors for 30 min at 37°C prior to addition of FIB One. […] Enzyme free reactions served as a control. Enzymatic reactions were performed in MMP buffer (10 mM CaCl2, 6.1 g Tris-HCl, 8.6 g NaCl per litre, pH 7.5) in a final volume of 20 μL. Reactions were performed in duplicate in 384-well plates (Life Technologies) with optically clear plate seals (Thermo Scientific) and repeated thrice (independently). Fluorescence signal was measured for up to 60 min, ex/em 485/528 nm using microplate reader (BioTek Synergy H1 multimode reader). Data were normalised to buffer alone and are presented as fold-change in signal (relative fluorescent units, RFU) compared to enzyme-free controls. Data were plotted using Prism 7 (GraphPad Software Inc., La Jolla, CA, USA).

[2] = tested on: erythrocyte; experiment: Erythrocyte hemolysis; type: cell-based
[3] = tested on: Crl:WI(Han) rats; experiment: Single intratracheal administration toxicity study of FIB One; type: in vivo; details: 100 µg/animal (500 µg/mL)
Experimental: Assessment of toxicity of FIB One was based on clinical signs, body weight, food consumption and clinical and anatomic pathology evaluations. Complete necropsies were performed on all animals with a recording of macroscopic abnormalities for all tissues. Organ weights and microscopic examinations were conducted as indicated.

[4] = tested on: patients; experiment: Laboratory results in patients after FIB One delivery; type: in vivo, human
Source text: Table S1: Laboratory results. […] Statistical analysis using paired t-test. (Hb= haemoglobin; WCC= white cell count; ALT- alanine transaminase; CRP= C Reactive Protein).

[5] = Stability study of FIB One aqueous formulation (HPLC); type: physicochemical; details: for Conc. / pH: aqueous formulation; for Conc. / ∆% / Total imp. RRT(%): HPLC; for ∆%: change of conc.
[6] = fridge 2-8 °C, 1m, 1st of 2 vials
[7] = fridge 2-8 °C, 1m, 2nd of 2 vials
[8] = fridge 2-8 °C, 3m, 1st of 2 vials
[9] = fridge 2-8 °C, 3m, 2nd of 2 vials
[10] = fridge 2-8 °C, 6m, 1st of 2 vials
[11] = fridge 2-8 °C, 6m, 2nd of 2 vials
[12] = fridge 2-8 °C, 9m, 1st of 2 vials
[13] = fridge 2-8 °C, 9m, 2nd of 2 vials
[14] = fridge 2-8 °C, 10m, 1st of 2 vials
[15] = fridge 2-8 °C, 10m, 2nd of 2 vials
[16] = fridge 2-8 °C, 12m, 1st of 2 vials
[17] = fridge 2-8 °C, 12m, 2nd of 2 vials
[18] = fridge 2-8 °C, 21m, 1st of 2 vials
[19] = fridge 2-8 °C, 21m, 2nd of 2 vials
[20] = fridge 2-8 °C, 24m, 1st of 2 vials
[21] = fridge 2-8 °C, 24m, 2nd of 2 vials
[22] = fridge 2-8 °C, 24h, 1st of 2 vials
[23] = fridge 2-8 °C, 24h, 2nd of 2 vials
[24] = fridge 2-8 °C, 14d, 1st of 2 vials
[25] = fridge 2-8 °C, 14d, 2nd of 2 vials

T1 sequence (P14780 107-444 limits assumed): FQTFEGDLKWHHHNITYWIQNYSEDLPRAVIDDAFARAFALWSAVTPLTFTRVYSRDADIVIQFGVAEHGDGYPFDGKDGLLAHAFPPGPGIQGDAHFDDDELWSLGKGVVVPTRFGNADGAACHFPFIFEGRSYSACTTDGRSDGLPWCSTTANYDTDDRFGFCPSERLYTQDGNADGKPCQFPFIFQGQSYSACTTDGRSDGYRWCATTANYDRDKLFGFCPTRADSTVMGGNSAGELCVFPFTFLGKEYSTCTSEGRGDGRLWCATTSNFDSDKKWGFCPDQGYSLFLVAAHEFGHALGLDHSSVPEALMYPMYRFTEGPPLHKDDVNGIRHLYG

(Pro-Phe-Gly-Nle-Lys-βAla)3 [FIB One]
fluorescent amplification of FIB One on exposure to enzyme ([1]; FIB One 1 μM, MMP buffer pH 7.5, ex/em 485/528 nm, fold-change vs enzyme-free control): rapid and specific fluorescent amplification
signal amplification compared with analogous monomeric linear structure (FRET-monomer) ([1]; probes 1 µM, 10 min incubation): improved signal amplification
erythrocyte hemolysis [2]: absence of erythrocyte hemolysis
deaths, clinical signs, body weight, food consumption, clinical or anatomic pathology [3]: no deaths, no adverse clinical signs and no effects of treatment
Potassium ([4]; blood 4-6 hours post FIB One delivery, mean (sd), baseline 4.3 (0.4)): 4.2 (0.4) mmol/L
Urea ([4]; blood 4-6 hours post FIB One delivery, mean (sd), baseline 4.6 (1.3)): 4.7 (1.1) mmol/L
CRP ([4]; blood 4-6 hours post FIB One delivery, mean (sd), baseline 5.4 (8.1)): 5.2 (8.1) mg/L
WCC ([4]; blood 4-6 hours post FIB One delivery, mean (sd), baseline 7.6 (1.1), p <0.0001): 10.9 (2.9) x10^9/L
Bilirubin ([4]; blood 4-6 hours post FIB One delivery, mean (sd), baseline 12.5 (5.3)): 12.4 (4.6) umol/L
ALT ([4]; blood 4-6 hours post FIB One delivery, mean (sd), baseline 25.2 (18.2)): 23.8 (15.2) IU/L
Creatinine ([4]; blood 4-6 hours post FIB One delivery, mean (sd), baseline 77.5 (11.5)): 77.3 (12.1) umol/L
Sodium ([4]; blood 4-6 hours post FIB One delivery, mean (sd), baseline 138.9 (2.7), p 0.01): 137.7 (3.2) mmol/L
Hb ([4]; blood 4-6 hours post FIB One delivery, mean (sd), baseline 148.6 (11.3), p 0.0002): 143 g/L
Platelets ([4]; blood 4-6 hours post FIB One delivery, mean (sd), baseline 221.5 (53.2)): 221.2 (52.6) x10^9/L
clinically significant alterations of laboratory results ([4]; pre procedure vs 4-6 hours post FIB One delivery): no clinically significant alterations
degradation in aqueous formulation of the drug product (HPLC traces) ([5]; after 24 months, stored at 2-8°C): no degradation
Conc. [5, 6]: 80.16 µg per 5mL
Conc. [5, 7]: 77.20 µg per 5mL
Conc. [5, 8]: 78.87 µg per 5mL
Conc. [5, 9]: 72.63 µg per 5mL
Conc. [5, 10]: 64.94 µg per 5mL
Conc. [5, 11]: 72.74 µg per 5mL
Conc. [5, 12]: 70.54 µg per 5mL
Conc. [5, 13]: 66.27 µg per 5mL
Conc. [5, 14]: 62.55 µg per 5mL
Conc. [5, 15]: 67.69 µg per 5mL
pH [5, 16]: 7.5
pH [5, 17]: 7.5
Conc. [5, 16]: 60.40 µg per 5mL
Conc. [5, 17]: 57.67 µg per 5mL
pH [5, 18]: 7.5
pH [5, 19]: 7.5
Conc. [5, 18]: 65.38 µg per 5mL
Conc. [5, 19]: 59.62 µg per 5mL
pH [5, 20]: 7.5
pH [5, 21]: 7.5
Conc. [5, 20]: 58.4 µg per 5mL
Conc. [5, 21]: 58.4 µg per 5mL
Conc. [5, 22]: 81.63 µg per 5mL
Conc. [5, 23]: 82.28 µg per 5mL
Conc. [5, 24]: 76.85 µg per 5mL
Conc. [5, 25]: 84.60 µg per 5mL
pH ([5]; timepoint 0): 7.5
∆% [5, 6]: -10.9%
∆% [5, 7]: -14.2%
∆% [5, 8]: -12.4%
∆% [5, 9]: -19.3%
∆% [5, 10]: -27.8%
∆% [5, 11]: -19.2%
∆% [5, 12]: -21.6%
∆% [5, 13]: -26.4%
∆% [5, 14]: -30.5%
∆% [5, 15]: -24.8%
∆% [5, 16]: -32.9%
∆% [5, 17]: -35.9%
∆% [5, 18]: -27.3%
∆% [5, 19]: -33.8%
∆% [5, 20]: -35.1%
∆% [5, 21]: -35.1%
∆% [5, 22]: -9.3%
∆% [5, 23]: -8.6%
∆% [5, 24]: -14.6%
∆% [5, 25]: -6.1%
Total imp. RRT(%) [5, 6]: ND/NQ ND/NQ
Total imp. RRT(%) [5, 7]: ND/NQ ND/NQ
Total imp. RRT(%) [5, 8]: ND/NQ ND/NQ
Total imp. RRT(%) [5, 9]: ND/NQ ND/NQ
Total imp. RRT(%) [5, 10]: ND/NQ ND/NQ
Total imp. RRT(%) [5, 11]: ND/NQ ND/NQ
Total imp. RRT(%) [5, 12]: ND/NQ ND/NQ
Total imp. RRT(%) [5, 13]: ND/NQ ND/NQ
Total imp. RRT(%) [5, 14]: ND/NQ ND/NQ
Total imp. RRT(%) [5, 15]: ND/NQ ND/NQ
Total imp. RRT(%) [5, 16]: ND/NQ ND/NQ
Total imp. RRT(%) [5, 17]: ND/NQ ND/NQ
Total imp. RRT(%) [5, 18]: ND/NQ ND/NQ
Total imp. RRT(%) [5, 19]: ND/NQ ND/NQ
Total imp. RRT(%) [5, 20]: ND/NQ ND/NQ
Total imp. RRT(%) [5, 21]: ND/NQ ND/NQ
Total imp. RRT(%) [5, 22]: ND/NQ ND/NQ
Total imp. RRT(%) [5, 23]: ND/NQ ND/NQ
Total imp. RRT(%) [5, 24]: ND/NQ ND/NQ
Total imp. RRT(%) [5, 25]: ND/NQ ND/NQ

Source: PMC10530652 (BME Frontiers, 2021)
